# Measured values published in publication PMC10914790.
# What was measured:
# Assay in all cases: MST; Clr4 constructs fluorescently labelled (BLUE-NHS), H3KC9me3 nucleosomes added at 8 nM to 2.5 μM; 10 mM Tris–HCl pH 7.5, 150 mM NaCl, 0.5 mM DTT, 0.05% Tween-20; 40% MST power, 80% LED; five runs
# [1] = molecular target: Clr4 CD-deleted construct (S. pombe)
# [2] = molecular target: full-length Clr4 (Cryptic loci regulator protein 4), H3K9 methyltransferase (S. pombe) (UniProt O60016)
# [3] = molecular target: Clr4 chromodomain construct (S. pombe) (UniProt O60016)
substance,measurement,setting,value
H3KC9me3 nucleosome (H3K9 trimethyl-lysine analog nucleosome) (complex),Kd,[1],422 nM
same,Kd,[2],541 nM
same,Kd,[3],310 nM
